The values that follow come from patent US10766952B2, “Methods for reducing migraine frequency in a subject in need thereof” (Beth Israel Deaconess Medical Center, Inc., priority 2017, dated 2020).

One assay addresses T1, rat α-CGRP (Rattus norvegicus, UniProt P01256).
T1 construct: rat α (1-37); host or cells: synthetic peptide
T1 sequence (P01256 83-119 limits assumed): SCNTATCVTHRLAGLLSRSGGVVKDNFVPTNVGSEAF
As to the kind of experiment: Biacore affinity of antibody G1 Fab and variants to rat α-CGRP. As to conditions: 37° C., Fab, screening mode unless underlined. Format: binding. How it is done: (§1) Biacore assay for affinity determination. […] All Biacore assays were conducted in HBS-EP running buffer (10 mM HEPES pH 7.4, 150 mM NaCl, 3 mM EDTA, 0.005% v/v polysorbate P20). CGRP surfaces were prepared by diluting the N-biotinylated CGRP to a concentration of less than 0.001 mg/mL into HBS-EP buffer and injecting it across the SA sensor chip using variable contact times. Low capacity surfaces, corresponding to capture levels <50 response units (RU) were used for high-resolution kinetic studies, whereas high capacity surfaces (about 800 RU of captured CGRP) were used for concentration studies, screening, and solution affinity determinations. […] Samples were typically injected for lminute at 100 μL/min and dissociation times of at least 10 minutes were allowed. After each binding cycle, surfaces were regenerated with 25 mM NaOH in 25% v/v ethanol, which was tolerated over hundreds of cycles. An entire titration series (typically generated in duplicate) was fit globally to a 1:1 Langmuir binding model using the BlAevaluation program. This returned a unique pair of association and dissociation kinetic rate constants (respectively, kon and koff) for each binding interaction, whose ratio gave the equilibrium dissociation constant (KD=koff/[…]).
(§2) High-resolution analysis of binding interactions with extremely slow offrates. […] The protocol described above was used with the following modifications. The association rate constant (kon) was determined by injecting a 2-fold titration series (in duplicate) spanning 550 nM-1 nM for 30 seconds at 100 μL/min and allowing only a 30 second dissociation phase. The dissociation rate constant (koff) was determined by injecting three concentrations (high, medium, and low) of the same titration series in duplicate for 30 seconds and allowing a 2-hour dissociation phase. The affinity (KD) of each interaction was obtained by combining the kon and koff values obtained in both types of experiments, as shown in Table 4.
(§3) The binding affinities of Fab fragments were determined by Biacore by flowing them across CGRPs on a SA chip.
Background: SPR reads the build-up and loss of mass on a sensor chip optically.

The target in the next assay is T2, human α-CGRP (Homo sapiens, UniProt P06881).
T2 construct: 1-37 (WT); purchased; host or cells: synthetic peptide
T2 sequence (P06881 83-119 limits assumed): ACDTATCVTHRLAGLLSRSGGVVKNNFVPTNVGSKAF
As to the kind of experiment: Biacore affinity of antibody G1 Fab and variants to human α-CGRP. Format: binding. As to conditions: 37° C., Fab, screening mode unless underlined. How it is done:
as §1, §2, §3

B1: M67: G1 variant: L1 R28N,T30G; L2 L56I; H2 E54K,A57F; HC-FW3 L99T,A100V (antibody, V domains shown)
VH: EVQLVESGGGLVQPGGSLRLSCAASGFTFSNYWISWVRQAPGKGLEWVAEIRSKSDFSATHYAEAVKGRFTISRDNAKNSLYLQMNSLRAEDTAVYYCTVYFDYGLAIQNYWGQGTLVTVSS
VL: EIVLTQSPATLSLSPGERATLSCKASKNVGTYVSWYQQKPGQAPRLLIYGASNRYIGIPARFSGSGSGTDFTLTISSLEPEDFAVYYCSQSYNYPYTFGQGTKLEIK
For B1, in the assay with rat α-CGRP, the α-rat koff is 0.00171 s⁻¹. In the assay with human α-CGRP, this molecule registered a α-human koff of 0.00082 s⁻¹.

B2: M68: G1 variant: L1 R28N,T30G; L2 L56I; H2 E54K,A57N,S58D,E64D; HC-FW3 L99T,A100V (antibody, V domains shown)
VH: EVQLVESGGGLVQPGGSLRLSCAASGFTFSNYWISWVRQAPGKGLEWVAEIRSKSDNDATHYADAVKGRFTISRDNAKNSLYLQMNSLRAEDTAVYYCTVYFDYGLAIQNYWGQGTLVTVSS
VL: EIVLTQSPATLSLSPGERATLSCKASKNVGTYVSWYQQKPGQAPRLLIYGASNRYIGIPARFSGSGSGTDFTLTISSLEPEDFAVYYCSQSYNYPYTFGQGTKLEIK
Turning to B2, the α-rat koff in the assay with rat α-CGRP is 0.00676 s⁻¹. Further, the α-human koff with human α-CGRP came out at 0.000428 s⁻¹.

B3: M70: G1 variant: L1 R28N,T30G; L2 L56I; H2 E54K,A57S; HC-FW3 L99T,A100V (antibody, V domains shown)
VH: EVQLVESGGGLVQPGGSLRLSCAASGFTFSNYWISWVRQAPGKGLEWVAEIRSKSDSSATHYAEAVKGRFTISRDNAKNSLYLQMNSLRAEDTAVYYCTVYFDYGLAIQNYWGQGTLVTVSS
VL: EIVLTQSPATLSLSPGERATLSCKASKNVGTYVSWYQQKPGQAPRLLIYGASNRYIGIPARFSGSGSGTDFTLTISSLEPEDFAVYYCSQSYNYPYTFGQGTKLEIK
For the molecule B3, the α-rat koff in the assay with rat α-CGRP is 0.00607 s⁻¹. Further, in the assay with human α-CGRP, the α-human koff was 0.000559 s⁻¹.

B4: M75: G1 variant: L1 R28N,T30G; L2 L56S; H2 E54K,A57V; HC-FW3 L99T,A100V (antibody, V domains shown)
VH: EVQLVESGGGLVQPGGSLRLSCAASGFTFSNYWISWVRQAPGKGLEWVAEIRSKSDVSATHYAEAVKGRFTISRDNAKNSLYLQMNSLRAEDTAVYYCTVYFDYGLAIQNYWGQGTLVTVSS
VL: EIVLTQSPATLSLSPGERATLSCKASKNVGTYVSWYQQKPGQAPRLLIYGASNRYSGIPARFSGSGSGTDFTLTISSLEPEDFAVYYCSQSYNYPYTFGQGTKLEIK
The molecule B4 yielded a α-rat koff with rat α-CGRP of 0.0187 s⁻¹. This molecule gave a α-human koff with human α-CGRP of 0.00116 s⁻¹.

B5: M79: G1 variant: L1 R28N,T30S; L2 G50A,L56T; H2 E54K,A57P; HC-FW3 L99T,A100V (antibody, V domains shown)
VH: EVQLVESGGGLVQPGGSLRLSCAASGFTFSNYWISWVRQAPGKGLEWVAEIRSKSDPSATHYAEAVKGRFTISRDNAKNSLYLQMNSLRAEDTAVYYCTVYFDYGLAIQNYWGQGTLVTVSS
VL: EIVLTQSPATLSLSPGERATLSCKASKNVSTYVSWYQQKPGQAPRLLIYAASNRYTGIPARFSGSGSGTDFTLTISSLEPEDFAVYYCSQSYNYPYTFGQGTKLEIK
Turning to B5, the α-rat koff in the assay with rat α-CGRP is 0.19 s⁻¹. The α-human koff with human α-CGRP is 0.00129 s⁻¹.

B6: M69: G1 variant: L1 R28N,T30G; L2 L56I; H2 E54K,A57N,S58E; HC-FW3 L99T,A100V (antibody, V domains shown)
VH: EVQLVESGGGLVQPGGSLRLSCAASGFTFSNYWISWVRQAPGKGLEWVAEIRSKSDNEATHYAEAVKGRFTISRDNAKNSLYLQMNSLRAEDTAVYYCTVYFDYGLAIQNYWGQGTLVTVSS
VL: EIVLTQSPATLSLSPGERATLSCKASKNVGTYVSWYQQKPGQAPRLLIYGASNRYIGIPARFSGSGSGTDFTLTISSLEPEDFAVYYCSQSYNYPYTFGQGTKLEIK
As for B6, the α-rat koff in the assay with rat α-CGRP was 0.00181 s⁻¹. The α-human koff with human α-CGRP stood at 0.000733 s⁻¹.

B7: M76: G1 variant: L1 R28N,T30S; L2 G50A,L56T; H2 A57G; HC-FW3 L99T,A100V (antibody, V domains shown)
VH: EVQLVESGGGLVQPGGSLRLSCAASGFTFSNYWISWVRQAPGKGLEWVAEIRSESDGSATHYAEAVKGRFTISRDNAKNSLYLQMNSLRAEDTAVYYCTVYFDYGLAIQNYWGQGTLVTVSS
VL: EIVLTQSPATLSLSPGERATLSCKASKNVSTYVSWYQQKPGQAPRLLIYAASNRYTGIPARFSGSGSGTDFTLTISSLEPEDFAVYYCSQSYNYPYTFGQGTKLEIK
With B7, the α-rat koff in the assay with rat α-CGRP was found to be 0.00116 s⁻¹. Further, in the assay with human α-CGRP, the α-human koff was 0.000364 s⁻¹.

B8: M72: G1 variant: L1 R28N,T30G; L2 L56S; H2 E54K; HC-FW3 L99T,A100V (antibody, V domains shown)
VH: EVQLVESGGGLVQPGGSLRLSCAASGFTFSNYWISWVRQAPGKGLEWVAEIRSKSDASATHYAEAVKGRFTISRDNAKNSLYLQMNSLRAEDTAVYYCTVYFDYGLAIQNYWGQGTLVTVSS
VL: EIVLTQSPATLSLSPGERATLSCKASKNVGTYVSWYQQKPGQAPRLLIYGASNRYSGIPARFSGSGSGTDFTLTISSLEPEDFAVYYCSQSYNYPYTFGQGTKLEIK
The molecule B8 came in with a α-rat koff with rat α-CGRP of 0.00395 s⁻¹. The α-human koff with human α-CGRP was 0.0004 s⁻¹.

B9: M77: G1 variant: L1 R28N,T30S; L2 G50A,L56T; H2 E54K,A57D; HC-FW3 L99T,A100V (antibody, V domains shown)
VH: EVQLVESGGGLVQPGGSLRLSCAASGFTFSNYWISWVRQAPGKGLEWVAEIRSKSDDSATHYAEAVKGRFTISRDNAKNSLYLQMNSLRAEDTAVYYCTVYFDYGLAIQNYWGQGTLVTVSS
VL: EIVLTQSPATLSLSPGERATLSCKASKNVSTYVSWYQQKPGQAPRLLIYAASNRYTGIPARFSGSGSGTDFTLTISSLEPEDFAVYYCSQSYNYPYTFGQGTKLEIK
In the assay with rat α-CGRP, B9 displayed a α-rat koff of 0.0143 s⁻¹. Moreover, the α-human koff with human α-CGRP is 0.000477 s⁻¹.

B10: M71: G1 variant: L1 R28N,T30G; L2 L56I; H2 E54K,A57Y; HC-FW3 L99T,A100V (antibody, V domains shown)
VH: EVQLVESGGGLVQPGGSLRLSCAASGFTFSNYWISWVRQAPGKGLEWVAEIRSKSDYSATHYAEAVKGRFTISRDNAKNSLYLQMNSLRAEDTAVYYCTVYFDYGLAIQNYWGQGTLVTVSS
VL: EIVLTQSPATLSLSPGERATLSCKASKNVGTYVSWYQQKPGQAPRLLIYGASNRYIGIPARFSGSGSGTDFTLTISSLEPEDFAVYYCSQSYNYPYTFGQGTKLEIK
Consider B10, for which the α-rat koff with rat α-CGRP turned out to be 0.00212 s⁻¹. The molecule also showed a α-human koff in the assay with human α-CGRP of 0.00128 s⁻¹.

B11: M73: G1 variant: L1 R28N,T30G; L2 L56S; H2 E54K,A57N,S58Y,E64D; HC-FW3 L99T,A100V (antibody, V domains shown)
VH: EVQLVESGGGLVQPGGSLRLSCAASGFTFSNYWISWVRQAPGKGLEWVAEIRSKSDNYATHYADAVKGRFTISRDNAKNSLYLQMNSLRAEDTAVYYCTVYFDYGLAIQNYWGQGTLVTVSS
VL: EIVLTQSPATLSLSPGERATLSCKASKNVGTYVSWYQQKPGQAPRLLIYGASNRYSGIPARFSGSGSGTDFTLTISSLEPEDFAVYYCSQSYNYPYTFGQGTKLEIK
Turning to B11, in the assay with rat α-CGRP, the α-rat koff came to 0.003 s⁻¹. The molecule further gave a α-human koff with human α-CGRP of 0.000255 s⁻¹.

B12: M74: G1 variant: L1 R28N,T30G; L2 L56S; H2 E54K,A57S; HC-FW3 L99T,A100V (antibody, V domains shown)
VH: EVQLVESGGGLVQPGGSLRLSCAASGFTFSNYWISWVRQAPGKGLEWVAEIRSKSDSSATHYAEAVKGRFTISRDNAKNSLYLQMNSLRAEDTAVYYCTVYFDYGLAIQNYWGQGTLVTVSS
VL: EIVLTQSPATLSLSPGERATLSCKASKNVGTYVSWYQQKPGQAPRLLIYGASNRYSGIPARFSGSGSGTDFTLTISSLEPEDFAVYYCSQSYNYPYTFGQGTKLEIK
Molecule B12 registered a α-rat koff with rat α-CGRP of 0.00603 s⁻¹. Also, the α-human koff in the assay with human α-CGRP turned out to be 0.000597 s⁻¹.

B13: M78: G1 variant: L1 R28N,T30S; L2 G50A,L56T; H2 E54K,A57N,S58T; HC-FW3 L99T,A100V (antibody, V domains shown)
VH: EVQLVESGGGLVQPGGSLRLSCAASGFTFSNYWISWVRQAPGKGLEWVAEIRSKSDNTATHYAEAVKGRFTISRDNAKNSLYLQMNSLRAEDTAVYYCTVYFDYGLAIQNYWGQGTLVTVSS
VL: EIVLTQSPATLSLSPGERATLSCKASKNVSTYVSWYQQKPGQAPRLLIYAASNRYTGIPARFSGSGSGTDFTLTISSLEPEDFAVYYCSQSYNYPYTFGQGTKLEIK
In the assay with rat α-CGRP, B13 gave a α-rat koff of 0.167 s⁻¹. This molecule also came in with a α-human koff with human α-CGRP of 0.00131 s⁻¹.
